Data reported in publication PMC11617674, “The activity of the ribonucleotide monophosphatase UmpH is controlled by interaction with the GlnK signaling protein in Escherichia coli” (The Journal of Biological Chemistry, 2024).
pKd: −log10 of the molar value.

Assays:
[1] = biological target: UmpH (ribonucleotide monophosphatase), untagged recombinant (E. coli) (UniProt P0AF24)
[2] = biological target: UmpH (ribonucleotide monophosphatase), untagged recombinant (E. coli) (UniProt P0AF24); remark: listed apart in the source
[3] = biological target: His-GlnK (E. coli PII signaling protein GlnK, N-terminal His tag) (E. coli) (UniProt P0AC55); assay: BLI; His-GlnK on Ni-NTA biosensor, UmpH as analyte; 20 mM Hepes pH 7.4, 50 mM KCl, 5 mM MgCl2, 2 mM DTT, 2 mM NAG; 1 mM ATP; 1:1 (GlnK trimer:UmpH monomer) model
[4] = biological target: His-GlnK (E. coli PII signaling protein GlnK, N-terminal His tag) (E. coli) (UniProt P0AC55); assay: BLI; His-GlnK on Ni-NTA biosensor, UmpH as analyte; 20 mM Hepes pH 7.4, 50 mM KCl, 5 mM MgCl2, 2 mM DTT, 2 mM NAG; no effector; 1:1 (GlnK trimer:UmpH monomer) model
[5] = biological target: His-GlnK (E. coli PII signaling protein GlnK, N-terminal His tag) (E. coli) (UniProt P0AC55); assay: BLI; His-GlnK on Ni-NTA biosensor, UmpH as analyte; 20 mM Hepes pH 7.4, 50 mM KCl, 5 mM MgCl2, 2 mM DTT, 2 mM NAG; 1 mM ADP; 1:1 (GlnK trimer:UmpH monomer) model

Sequence of His-GlnK (E. coli PII signaling protein GlnK, N-terminal His tag) (E. coli) (P0AC55 whole entry): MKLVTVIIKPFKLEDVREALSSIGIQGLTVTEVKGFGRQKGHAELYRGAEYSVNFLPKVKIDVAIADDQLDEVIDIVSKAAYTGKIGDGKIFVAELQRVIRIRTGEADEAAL
Sequence of UmpH (ribonucleotide monophosphatase), untagged recombinant (E. coli) (P0AF24 whole entry): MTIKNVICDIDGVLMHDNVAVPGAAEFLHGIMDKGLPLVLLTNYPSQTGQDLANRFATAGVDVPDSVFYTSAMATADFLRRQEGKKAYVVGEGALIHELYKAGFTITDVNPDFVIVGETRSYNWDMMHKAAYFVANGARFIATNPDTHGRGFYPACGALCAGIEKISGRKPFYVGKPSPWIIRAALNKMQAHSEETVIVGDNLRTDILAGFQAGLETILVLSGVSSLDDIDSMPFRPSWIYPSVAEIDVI

Substance	UmpH Vmax (phosphate release from UMP), decrease in the presence of 2 μM GlnK trimer, 0.56 μM UmpH monomer, no GlnK effectors [1] [%]	UmpH catalytic efficiency (Vmax/KM) for UMP, decrease in the presence of 2 μM GlnK trimer, 0.56 μM UmpH monomer, no GlnK effectors [1] [%]	inhibition of UmpH phosphatase activity (0.5 mM UMP, 0.1 mM ADP, 0.56 μM UmpH) against increasing GlnK trimer up to 2 μM [2] [%]	pKd [3]	pKd [4]	pKd [5]
His-GlnK (E. coli PII signaling protein GlnK, N-terminal His tag) (from UniProt P0AC55 1-112) (natural protein)	30	68	50	–	–	–
UmpH (ribonucleotide monophosphatase), untagged recombinant (from UniProt P0AF24 1-250) (enzyme)	–	–	–	7.43	7.30	8.11
